In the nanobody polyreactivity screen of Harvey et al. (2022):

Test: yeast display, Sf9 membrane polyspecificity reagent, FACS + sequencing; frameworks hold sequencing errors
Outline: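 Using colony PCR, genes from sorted yeast display clones were amplified, then sequenced on MiSeq at 2 × 250 and filtered by CDR length. The clones had been stained with 10% biotinylated, detergent-solubilized Sf9 membrane reagent for 1 hour at 4 °C and sorted by FACS into low and high (top ~1%) gates on anti-HA and streptavidin fluorescence. Polyreactivity labels come from the gate of origin.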

Sequence | polyreactivity (PSR sort gate)
QVQLVESGGGLVQAGGSLRLSCAASGRTFIGYAMGWYRHAPGKERELVATISVSGGSTYYADSVKGRFTISRDNAKNTVYLQMKSLKPEDTAVYYCDKAYLRYYDGPYDYWGQGTQVTVSS | low polyreactivity
QVQLVESGGGLVQAGGSLRLSCAASGRTFIGYAMGWYRQAPGKERELVAASSSGGNTYYADSVKGRFTISRDNAKNTVYLQMNSLKPEDTAVYYCAAKGYRRVARYFIGDYWGQGTQVTVSS | low polyreactivity
QVQLVESGGGLVQAGGSLRLSCAASGRTFIGYAMGWYRQAPGKERELVATISVSGGSTYYADSVKGRFTISRDNAKNTVYLQMNSLKPEVTAVYYCAKAYLRYYDGPYDYWGHGTQVTVSS | low polyreactivity
QVQLVESGGGLVQAGGSLRLSCAASGRTFIINTMGWYRQAHGKERELVAAISKNGATTNYADSVKGRFTISRDNAKNTVYFQMNSLKPEDTAVYYCNARYSGYLRLDYWGQGTQVTVSS | low polyreactivity
QVQLVESGGGLVQAGGSLRLSCAASGRTFIKNAMGWYRQAPGKERELVAAINWSGTRTYYADSVKGRFTISRDNAKNTVYLQMNSLKPEDTAVYYCAKVIARYVRYDYWGQGTQVTVSS | high polyreactivity
QVQLVESGGGLVQAGGSLRLSCAASGRTFILYAMGWYRQAPGKERELVAAITRRGGRTYYADSVKGRFTISRDNAKNTVYLQMNSLKPEDTAVYYCAADQYYYTQPSDMDYWGQGTQVTVSS | high polyreactivity
QVQLVESGGGLVQAGGSLRLSCAASGRTFIRNAMGWYRQAPGKERELVAAISGTGGSTYYADSVKGRLTISRDNAKNTVYLQMNSLKPEDTAVYYCAADRPAPGYDYWGQGTQVTVSS | low polyreactivity
QVQLVESGGGLVQAGGSLRLSCAASGRTFIRNVMGWYRQAPGKERELVAAISTRGGSTYYADSVKGRFTISRDIAKNTVYLQMNSMKPEDTAVYYCASVIRCRYSYYEYDYWGQGTQETVSS | high polyreactivity
QVQLVESGGGLVQAGGSLRLSCAASGRTFISYAMGWYRQAPGKERELVAAISGRGGSTYFADSVKGRFTISRDNAKNTVYLQMNSLKQEDTAVYYCAAEWFGVYRRYKYDYWGQGTQVTVSS | low polyreactivity
QVQLVESGGGLVQAGGSLRLSCAASGRTFIVYAMGWYRQAPGKERELVAAITRSGSSTYYADSVKGRFTISRDNAKNTVYLQMNSLKPEDTAVYYCAADVGFGGYSHFDPYEYWGQGTQVTVSS | high polyreactivity
QVQLVESGGGLVQAGGSLRLSCAASGRTFIWNAMGWYRQAPGKERELVADISIRGGSTNYADSVKGRFTISRDNAKNTVYFQMNSLKPEDTAVYYCAAEYYDSGNDYWGQGTQVTVSS | low polyreactivity
QVQLVESGGGLVQAGGSLRLSCAASGRTFIYNAMAWYRQAPWKERELVAGITRSGGSTYYADSVKGRFTISRDNAKNTVYLQMNSLKPEDTAVYYCAAARRTKTFSSYYYWGQGTQVTVSS | high polyreactivity
QVQLVESGGGLVQAGGSLRLSCAASGRTFIYYAMGWYRQAPGKERELVAAISRSGGSTYYADSVKGRFTISRDNAKNTVYLQMNSLKPEDTAVYYCAAADPLGYEYDSWGQGTQVTVSS | high polyreactivity
QVQLVESGGGLVQAGGSLRLSCAASGRTFIYYAMGWYRQAPGKERELVAGISRNGGRTYYADSVKGRFTISRDNAKNTVYLQMNSLKPEDTAVYYCNARTYSYRGYNYWGQGTQVTVSS | high polyreactivity
QVQLVESGGGLVQAGGSLRLSCAASGRTFKDYAMGWYRQAPGKERELVAAISWSGGDTYYADSVKGRFTISRDNAKNTVYLQMNSLKPEDTAVYYCNADPSGVFFYSLEFDYWGQGTQVTVSS | low polyreactivity
QVQLVESGGGLVQAGGSLRLSCAASGRTFKFYAMGWDRQAPGSDRELVAAISSSGGRTYYADSVKGRFTISRDNAKNTVYLQMNSLKPEDTAVYYCAAVPGSKFVQKDDYWGQGTQVTVSS | low polyreactivity

Sequence | polyreactivity (PSR sort gate)
QVQLVESGGGLVQAGGSLRLSCAASGRTFKFYAMGWYRQAPGKERELVAGIGSGGRTYYADSVKGRFTISRYNAKNTVYLHMNSLKPEDTAVYYCAARQYGPRYTYYYWGQGTQVTVSS | high polyreactivity
QVQLVESGGGLVQAGGSLRLSCAASGRTFKGYAMGWYRQAPGKEREFVATITSRGDRTYYADSVKGRFTISRDNAKNTVSLQMNSLKPEDTAVYYCNARYYWKQAADYNYWGQGTQVTVSS | low polyreactivity
QVQLVESGGGLVQAGGSLRLSCAASGRTFKGYAMGWYRQAPGKERELVAAITGSVGSTYYADSVKGRFTISRDNAKNTVYLQMNSLKPEDTAVYYCAKRWKATRARYDYWGLGTQVTVSS | high polyreactivity
QVQLVESGGGLVQAGGSLRLSCAASGRTFKINAMGWYRQAPGKERELVATITGRGASTYYADSVKGRFTISRDNAKNTVYLQMNSLKPEDTAVYYCAARTEVPTRYNYWGQGTQVTVSS | high polyreactivity
QVQLVESGGGLVQAGGSLRLSCAASGRTFKIYAMGWYRQAPGKERELVAAISRGGRTYYADSVKGRFTISRDNAKNTVYLQMNSLKPEDTAVYYCAADLLISPEFYYWGQGTQVTVSS | high polyreactivity
QVQLVESGGGLVQAGGSLRLSCAASGRTFKKYAMGWYRQAPGKERELVAAITGSGGSTYYADSVKGRFTISRDNAKNTVYLQMNILTPEDTAVYYCAAYAYGVWHSQDGGNYWGQCTQVTVSS | low polyreactivity
QVQLVESGGGLVQAGGSLRLSCAASGRTFKKYAMGWYRQAPGKEREVVAAITSRVGSTSYADSVKGRFTISRDNAKNTVYLQMNSLKPEDTAVYYCAARYSVGTGYGYWGQGTQVTVSS | high polyreactivity
QVQLVESGGGLVQAGGSLRLSCAASGRTFKPYAMGWYRQAPGKERELVAAISTRGGSTYYADSVKGRFTISRDNAKNTVYLQMNSLKPEDTAVYYCAATQPGRDYDYWGQGTQVTVSS | low polyreactivity
QVQLVESGGGLVQAGGSLRLSCAASGRTFKSYAMGWYRQAPGKERELVAAISKRGGSTYYADSVKGRFTISRDNAKNTVYLQMNSLKPEDTAVYYCAADARYRSYSLLVRPGRYYYWGQGTQVTVSS | high polyreactivity
QVQLVESGGGLVQAGGSLRLSCAASGRTFKSYAMGWYRQAPGKERELVAAISYSGGSTYYADSVKGRFTISRDNAKNTVYLQMNSLKPEDTAVYYCNVVSKVIRGLSGDGYWGQGTQVTVSS | high polyreactivity
QVQLVESGGGLVQAGGSLRLSCAASGRTFKTYAMGWYRQAPGKERELVAAISRDGRTYYADSVKGRFTISRDNAMNTVYLQMNSLKPEDTAVYYCNKRSYRKGDYWGQGTQVTVSS | low polyreactivity
QVQLVESGGGLVQAGGSLRLSCAASGRTFKVYAMGWYRQAPGKERELVAAISDRGGSTYYADSVKGRFTISRDNAKNSVYLQMNSLKPEDTAVYYCSAEYARSTWRAYPELDYWGQGTQVTVSS | low polyreactivity
QVQLVESGGGLVQAGGSLRLSCAASGRTFKYNTMGWYRQAPGKERELVAVISRSGGRTYYADSVKGRFTISRDNAKNTVYLQMNSLKPEDTAVYYCAKGIPYADPQSAYDDYWGQGTQVTVSS | high polyreactivity
QVQLVESGGGLVQAGGSLRLSCAASGRTFKYYAMGWSRQAPGKERELVATISSGGSTNYADSVKGRFTISRDNAKNTVYLQMNSLKPEDTAVYYCADTIGHNGFDYWGQGTQVTVSS | low polyreactivity
QVQLVESGGGLVQAGGSLRLSCAASGRTFKYYAMGWYRQAPGIEREFVAAITVSGGSTYYADSVKGRFTISRDNAKNPVYLQMNSLKPEDTAVYYCAARYQRYSSKTIQNEDYWGQGTQVTVSS | high polyreactivity
QVQLVESGGGLVQAGGSLRLSCAASGRTFKYYAMGWYRQAPGKERELVAAISRGGSTNYADSVKGRFTISRDNAKNTVYLQVNSLKPEDTPVYYCAKDYVWYDEYDYWGQGTQVTVSS | low polyreactivity
